Laboratory results as given in the supplement of paper PMC10567573.

B1: CCND1 (parent)
chain: PEAEENKQIIRKHAQTFVALCATD

Variants of: B1
Assay: protein stability index of a GFP-peptide fusion (GPS, HEK-293T) (PSI 1-6); higher = more stable
Details: c terminus: a fixed tail appended
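Also: lentivirally expressed fusions sorted by FACS into six bins by GFP to DsRed ratio, PSI derived from sequencing read proportions per bin multiplied by bin number.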

Protein stability index: each site, then its substitutions
K12: Y 3.49, Q 3.9, W 2.34, M 2.73, L 2.77, A 3.83, C 2.76, S 2.29, R 2.67, F 2.51, D 3.66, H 3.47, N 3.25, G 3.65, V 3.13, P 4.03, T 3.06, E 4.58, I 2.39
R11: P 3.28, K 2.9, W 2.6, F 2.64, T 3.47, H 3.33, C 2.94, I 2.84, Y 2.88, V 3.14, M 2.71, G 3.16, L 3.25, S 2.62, Q 3.61, N 3.59, E 3.76, D 4.11, A 3.58
Q8: E 3.48, T 1.7, R 3.07, W 2.05, G 2.85, P 1.95, Y 2.55, H 3.22, L 2.45, K 2.33, N 3.13, I 2.19, S 2.58, F 2.24, M 2.85, D 3.54, V 2.07, C 2.24, A 2.77
I10: Y 2.29, K 2.92, A 2.79, V 3.39, M 3.5, D 3.14, E 3.64, W 3.22, H 3.5, N 3.04, S 2.53, T 3.04, C 3.13, F 2.48, R 3.19, Q 2.81, L 3.48, P 3.14, G 2.53
D24: C 2.71, E 2.33, G 2.85, K 3.84, H 2.77, A 3.27, I 2.15, F 2.23
C21: N 5.27, H 4.37, D 5.22, L 1.66, V 2.24, G 5.04, K 5.07, P 4.7, Y 2.96, S 4.07, E 4.9, W 3.59, M 3.28, T 2.78, F 3.75, R 4.86, A 4.05, Q 4.95, I 1.98
T16: M 3.86, C 3.55, W 2.85, Y 3.58, A 4.71, N 4.61, G 3.88, H 4.35, S 3.2, D 4.81, R 4.25, Q 4.13, I 3.35, L 3.51, K 4.7, P 4.62, F 3.37, E 5.27, V 3.85
T23: H 2.64, G 2.64, F 1.75, K 2.92, Y 2.47, P 3.07, E 2.21, C 2.64, Q 2.54, A 2.87, R 2.48, W 2.63, I 2.38, S 2.48, D 3.22, M 2.94, V 2.87, L 2.35, N 2.94
A22: Q 2.91, E 2.96, W 2.09, I 2.95, S 3.19, T 2.87, Y 3.02, D 3.87, K 3.66, H 3.38, F 2.63, V 2.52, L 2.72, N 4.43, C 2.15, G 3.37, P 4.49, M 2.67, R 3.16
A19: C 3.3, D 2.6, M 2.55, T 4.06, S 2.89, L 2.59, Q 2.5, K 3.54, E 2.49, G 2.91, W 3.06, F 3.08, H 3.32, P 4.92, V 4.04, I 2.85, N 2.92, R 3.96, Y 3.64
F17: S 4.67, P 5.15, K 5.34, T 5.23, N 5.41, A 4.99, I 4.84, R 4.54, D 5.61, W 2.11, G 5.43, H 4.86, E 5.24, M 5.03, V 4.33, Q 4.99, L 4.47, Y 3.27, C 4.84
H13: Y 2.59, G 3.84, F 2.55, E 3.7, I 1.87, Q 3.4, D 4.02, N 2.53, V 3.02, R 2.9, L 2.81, P 3.17, T 3.07, K 2.02, S 2.54, M 2.89, A 3.11, C 2.65, W 2.25
I9: Y 2.71, F 2.86, C 2.48, Q 2.81, P 3, M 3.53, W 2.73, H 3.58, K 2.45, D 3.9, N 3.56, V 3.04, T 2.18, L 3.36, S 2.46, A 3.74, R 2.17, E 3.89, G 3.27
A14: V 2.3, H 2.62, C 2.72, S 2.96, Q 2.28, T 2.33, E 3.45, P 2.64, G 3.71, F 2.79, N 3.77, Y 2.44, L 2.18, M 2.97, R 1.85, W 1.94, I 2.29, D 3.71, K 2.38
V18: E 5.09, K 5.09, N 4.61, T 3.96, H 4.7, D 5.34, R 3.87, P 5.04, I 4.42, Q 4.29, C 3.72, M 4.35, A 3.77, Y 3.75, L 4.49, F 4.28, W 3.76, G 4.55, S 4.49
L20: R 2.09, K 2.59, I 3.33, F 4.21, W 4.15, A 3.3, D 4.62, M 2.11, T 4.04, V 2.87, P 4.79, N 3.84, Y 2.66, G 4.71, Q 2.85, H 3.21, S 4.43, C 3.82, E 4.8
N6: W 2.42, Y 3.05, V 1.85
Q15: V 2.84, R 2.32, W 2.16, Y 2.01, E 3.63, I 2.33, L 2.49, D 3.66, S 3.52, N 3.41, C 2.84, T 3.18, H 2.97, A 3.45, G 3.11, K 2.04, P 3.48, F 2.07, M 2.59
K7: S 2.53, R 3.25, V 2.54, Q 2.98, W 2.61, D 3.69, T 2.64, A 3.37, F 2.71, C 2.92, G 3.26, L 2.95, N 3.78, I 2.6, P 3.19, M 3.17, E 3.84, H 3.36, Y 2.62
